# Experimental data taken from patent US20060057623A1.
# Biological target: p300 (UniProt Q09472)
# Test: cell-based or functional assay
# Chain of p300 (Q09472 2-2414 limits assumed): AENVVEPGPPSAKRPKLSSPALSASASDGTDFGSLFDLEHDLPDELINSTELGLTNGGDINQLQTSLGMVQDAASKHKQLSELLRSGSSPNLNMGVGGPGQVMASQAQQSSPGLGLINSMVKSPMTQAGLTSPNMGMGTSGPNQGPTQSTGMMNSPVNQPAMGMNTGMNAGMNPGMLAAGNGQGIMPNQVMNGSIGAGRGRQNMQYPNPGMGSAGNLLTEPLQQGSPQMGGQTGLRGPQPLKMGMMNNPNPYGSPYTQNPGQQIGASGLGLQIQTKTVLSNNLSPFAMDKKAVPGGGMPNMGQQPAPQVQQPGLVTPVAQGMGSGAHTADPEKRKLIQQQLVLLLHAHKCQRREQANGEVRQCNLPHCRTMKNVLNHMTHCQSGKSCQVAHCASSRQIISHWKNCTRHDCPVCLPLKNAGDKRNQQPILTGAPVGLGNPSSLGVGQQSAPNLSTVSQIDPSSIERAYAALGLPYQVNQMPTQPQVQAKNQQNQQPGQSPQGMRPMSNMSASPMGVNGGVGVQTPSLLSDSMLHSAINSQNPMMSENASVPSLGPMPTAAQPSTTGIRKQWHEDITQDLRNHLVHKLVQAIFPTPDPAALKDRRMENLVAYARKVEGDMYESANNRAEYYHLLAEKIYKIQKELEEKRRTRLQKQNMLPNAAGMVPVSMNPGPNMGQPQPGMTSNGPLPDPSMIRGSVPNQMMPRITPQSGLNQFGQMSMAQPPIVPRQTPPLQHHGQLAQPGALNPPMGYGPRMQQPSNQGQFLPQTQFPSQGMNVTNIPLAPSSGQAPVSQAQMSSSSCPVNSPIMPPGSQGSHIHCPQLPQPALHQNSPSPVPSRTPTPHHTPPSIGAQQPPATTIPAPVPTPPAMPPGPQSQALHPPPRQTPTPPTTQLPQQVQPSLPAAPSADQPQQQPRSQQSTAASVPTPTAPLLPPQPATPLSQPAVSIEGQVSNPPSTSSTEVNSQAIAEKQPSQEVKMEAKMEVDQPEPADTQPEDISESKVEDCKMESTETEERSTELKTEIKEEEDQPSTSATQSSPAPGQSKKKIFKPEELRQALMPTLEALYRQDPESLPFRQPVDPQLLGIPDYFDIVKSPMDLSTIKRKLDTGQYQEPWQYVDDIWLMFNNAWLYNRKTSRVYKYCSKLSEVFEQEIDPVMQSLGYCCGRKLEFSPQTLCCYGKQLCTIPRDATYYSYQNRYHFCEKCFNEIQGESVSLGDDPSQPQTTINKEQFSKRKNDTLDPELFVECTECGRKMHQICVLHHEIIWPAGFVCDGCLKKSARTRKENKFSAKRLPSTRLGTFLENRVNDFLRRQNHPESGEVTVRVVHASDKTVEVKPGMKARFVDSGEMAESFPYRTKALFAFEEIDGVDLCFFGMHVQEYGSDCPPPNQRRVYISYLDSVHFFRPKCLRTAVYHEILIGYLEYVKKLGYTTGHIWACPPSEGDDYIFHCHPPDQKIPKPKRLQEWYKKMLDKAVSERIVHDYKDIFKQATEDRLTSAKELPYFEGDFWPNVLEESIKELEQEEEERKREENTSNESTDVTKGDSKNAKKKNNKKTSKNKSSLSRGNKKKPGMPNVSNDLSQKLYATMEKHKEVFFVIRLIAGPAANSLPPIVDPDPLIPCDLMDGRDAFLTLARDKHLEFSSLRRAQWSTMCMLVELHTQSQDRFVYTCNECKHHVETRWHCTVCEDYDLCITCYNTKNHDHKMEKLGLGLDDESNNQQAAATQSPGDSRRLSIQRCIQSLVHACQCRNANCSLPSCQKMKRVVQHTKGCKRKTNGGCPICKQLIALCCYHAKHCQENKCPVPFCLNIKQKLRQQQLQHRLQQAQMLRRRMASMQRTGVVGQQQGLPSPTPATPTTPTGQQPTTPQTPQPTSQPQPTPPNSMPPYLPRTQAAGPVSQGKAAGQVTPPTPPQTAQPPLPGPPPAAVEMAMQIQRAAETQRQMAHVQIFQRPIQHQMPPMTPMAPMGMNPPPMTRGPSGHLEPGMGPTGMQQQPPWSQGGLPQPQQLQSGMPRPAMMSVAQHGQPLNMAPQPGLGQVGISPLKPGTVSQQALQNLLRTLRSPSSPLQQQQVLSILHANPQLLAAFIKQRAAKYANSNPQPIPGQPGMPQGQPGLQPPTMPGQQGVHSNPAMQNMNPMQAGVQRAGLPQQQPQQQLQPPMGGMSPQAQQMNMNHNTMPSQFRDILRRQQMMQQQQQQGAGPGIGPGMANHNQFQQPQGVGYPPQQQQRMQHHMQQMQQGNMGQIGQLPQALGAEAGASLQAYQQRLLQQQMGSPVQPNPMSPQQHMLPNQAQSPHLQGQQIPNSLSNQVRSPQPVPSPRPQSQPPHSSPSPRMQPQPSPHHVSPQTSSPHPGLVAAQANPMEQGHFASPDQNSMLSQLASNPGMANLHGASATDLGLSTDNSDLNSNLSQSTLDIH
substance,measurement,value
"E1AΔ2-36, a p300 binding-defective mutant",cyclin D1 promoter CD1 (-1745/+134) luciferase activity with SENP1 (PC-3 cells),38%
